Data reported in patent US9556424B2, “1-deoxy-D-xylulose 5-phosphate synthase alleles responsible for enhanced terpene biosynthesis” (GENOPLANTE-VALOR, priority 2010, dated 2017).
Positions count from the first letter of the chain named.

B1: MoDXS1: typical (wild type) DXS allele shared by Vitis vinifera cv Muscat Ottonel and Gewurztraminer (protein)
chain: MALCTLSFPAHFSQAAASNPQRLTPQCSHLFLGVDLQCQSQQRSKARKRPNGVCASLSDREEYHSQRPPTPLLDTINYPIHMKNLSVKELKQLADELRSDVVFNVSKTGGHLGSSLGVVELTVALHYVFNAPQDRILWDVGHQSYPHKILTGRRDQMHTMRQTDGLAGFTKRSESEYDCFGTGHSSTTISAGLGMAVGRDLKGKNNNVIAVIGDGAMTAGQAYEAMNNAGYLDSDMIVILNDNKQVSLPTATLDGPIPPVGALSSALSRLQSNRPLRELREVAKGVTKQIGGPMHELAAKVDEYARGMISGSGSTLFEELGLYYIGPVDGHNIDDLVAILKEVKSTKTTGPVLIHVVTEKGRGYPYAEKAADKYHGVTKFDPATGKQFKSSAPTQSYTTYFAEALIAEAEVDKDIVAIHAAMGGGTGLNLFHRRFPTRCFDVGIAEQHAVTFAAGLACEGIKPFCAIYSSFMQRAYDQVVHDVDLQKLPVKFAMDRAGLVGADGPTHCGAFDVAFMACLPNMVVMAPADEAELFHMVATAAAIDDRPSCFRYPRGNGVGVELPPGNKGIPIEVGRGRILIEGERVALLGYGTAVQSCLVASSLLEQHGLRITVADARFCKPLDHALIRSLAKSHEVLITVEEGSIGGFGSHVAQFLALNGLLDGTTKWSPMVLPDRYIDHGAPADQLAMAGLTPSHIAATVFNILGQTREALEIML
modifications: Vitis Vinifera
notes: typical (wild type) DXS allele shared by Vitis vinifera cv Muscat Ottonel and Gewurztraminer
B2: MoDXS2: DXS allele of Vitis vinifera cv Muscat Ottonel with K284→N mutation (protein)
chain: B1 chain with K284N, V560I
modifications: Vitis Vinifera
notes: DXS allele of Vitis vinifera cv Muscat Ottonel with K284→N mutation
B3: GwDXS2: DXS allele of Vitis vinifera cv Gewurztraminer with R306→C mutation (protein)
chain: B1 chain with R306C
modifications: Vitis Vinifera
notes: DXS allele of Vitis vinifera cv Gewurztraminer with R306→C mutation

Columns and labels:
[1] = tested on: grape berries; assay: Terpenol content in grape berry skins as a function of DXS alleles (MO and GW progeny); type: in vivo, Vitis vinifera; conditions: by DXS genotype in MO and GW progeny, pool of 5 major terpenols
Protocol: Isolation of Free and Bound Monoterpenols by Solid Phase Extraction (SPE)
For each sampling point, three replicates of terpenol analysis were performed. For each replicate, at least 25 berries were used. Seeds were removed and skins separated from mesocarps. After weighing, skins were ground under liquid nitrogen and then suspended in 40 mL of water after addition of 40 mg of sodium sulphite. The supernatant obtained after a 15-min centrifugation (11400 g at 4° C.) was passed through a glass fibre pre-filter and a glass filter. Twenty microliters of a 1 g/L 4-nonanol solution was added as external standard to allow the quantification of the main terpenols. Extraction of terpenols was adapted from Mateo et al. (1997), ethanol being used instead of methanol. The filtrate was passed through a 1 g phase C18 silica-bonded non-polar SPE column (BOND ELUT JR.), previously washed with 5 mL of methanol and 15 mL of ultra-pure water, at a rate of approximately one drop/s. The sample was then divided in two equal subsamples, one for the analysis of free and glycosidically bound monoterpenols and one for the analysis of free terpenols. Total fractions of free and bound monoterpenols were eluted with 4 mL of absolute ethanol. […]

[2] = tested on: tobacco leaves; assay: Agrobacterium-mediated transient co-expression of GES and DXS alleles in tobacco leaves, geraniol by GC-MS; type: in vivo, Nicotiana benthamiana; conditions: 96 h after infiltration; for increase in geraniol accumulation in tobacco leaves: co-expression with GES, in average
Excerpt: In order to characterize DXS alleles activity, the inventors used Agrobacterium-mediated transient transformation of tobacco (Nicotiana benthamiana), which allows a fast and efficient gene expression in tobacco leaves (Batoko et al., 2000). This approach was already used successfully to characterize genes involved in grapevine secondary metabolism (Schmidlin et al., 2008; Hugueney et al., 2009). MoDXS1, MoDXS2 and GwDXS2 alleles were expressed in tobacco leaves, together with a cDNA encoding the enzyme geraniol synthase (GES) from basilicum (Ocimum basalicum) (Iijima et al., 2004). […] Thus, GC-M5 analyses of tobacco leaves co-expressing GES and DXS alleles allowed an accurate comparison of DXS alleles activity in planta.
Grapevine DXS cDNAs were amplified by PCR using the upstream primer 5′-[…] TACGCTCTCATTTCC-3′ (SEQ ID No11) and the downstream primer 5′-[…]-3′ (SEQ ID No12), and cloned into the pDONR207 Gateway compatible vector (Invitrogen, Carlsbad, Calif.) using Gateway BP clonase (Invitrogen) according to the manufacturer's instructions. DXS cDNAs were sequenced to verify that no mutation had been introduced. For Agrobacterium-mediated transient expression, DXS cDNAs were subsequently transferred into the GATEWAY binary vector pMDC32 (Curtis and Grossniklaus., 2003). Geraniol synthase cDNA from basilicum (Ocimum basilicum) (Iijima et al., 2004) was cloned into the GATEWAY binary vector pMDC83 (Curtis and Grossniklaus., 2003) and expressed as a GFP fusion protein. All constructs were introduced into Agrobacterium tumefaciens strain C58 (pMP90) by electroporation. Nicotiana benthamiana leaves were infiltrated with A. tumefaciens cultures (OD600 0.5) according to Voinnet et al. (2003). Leaf sectors were […] for terpene content 96 h after Agrobacterium infiltration.
For each sampling point, three replicates of terpenol analysis were performed. After weighing, tobacco leaf sectors (about 1 g) were ground under liquid nitrogen and then suspended in 2 mL of ultra-pure water. […]

| Molecule | terpenol content in grape berries [1] | geraniol biosynthesis ([2]; co-expression with GES in tobacco leaves, versus GES alone) | increase in geraniol accumulation in tobacco leaves [2] |
| --- | --- | --- | --- |
| B1 | extremely low levels of terpenols | substantial increases |  |
| B2 |  |  | three time increase |
| B3 |  |  | three time increase |
